Laboratory results from patent US20060115837A1 (WASHINGTON UNIVERSITY, published 2006).

T1: West Nile Virus envelope protein on WNV virions (West Nile Virus, UniProt Q9Q6P4 291-791)
T1 sequence: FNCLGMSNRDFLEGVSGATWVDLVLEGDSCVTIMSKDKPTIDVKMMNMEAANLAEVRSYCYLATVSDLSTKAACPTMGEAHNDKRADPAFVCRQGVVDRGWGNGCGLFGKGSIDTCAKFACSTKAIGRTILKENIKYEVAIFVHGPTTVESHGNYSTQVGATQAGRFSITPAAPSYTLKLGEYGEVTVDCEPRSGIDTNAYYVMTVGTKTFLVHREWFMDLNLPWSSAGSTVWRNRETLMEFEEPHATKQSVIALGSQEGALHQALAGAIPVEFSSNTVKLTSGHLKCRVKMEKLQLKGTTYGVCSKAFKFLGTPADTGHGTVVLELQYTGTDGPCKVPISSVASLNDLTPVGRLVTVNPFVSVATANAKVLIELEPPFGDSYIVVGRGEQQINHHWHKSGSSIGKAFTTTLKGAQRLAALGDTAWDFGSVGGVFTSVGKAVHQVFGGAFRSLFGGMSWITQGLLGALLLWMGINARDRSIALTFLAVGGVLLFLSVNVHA

B1: monoclonal antibody E16 (antibody, V domains shown)
VH: QVQLQQSGSELMKPGASVQISCKATGYTFSDYWIEWVKQRPGHGLEWIGILCGTGRTRYNEKLKAMATFTADTSSNTAFMQLSSLTSEDSAVYYCARSASYGDYADYWGHGTTLTVSS
VL: DIVMTQSHKFMSTSVGDRVSITCKASQDVSTAVAWYQQKPGQSPKLLISWASTRHTGVPDRFTGSGSGTDYTLTISSVQAEDLALYYCQQHYTTPLTFGAGTKLELK

Tests used:
[1] = target: West Nile Virus envelope protein on WNV virions (West Nile Virus) (UniProt Q9Q6P4); assay: cell-based or functional assay
[2] = target: T1, West Nile Virus envelope protein on WNV …; assay: cell-based or functional assay

Molecule	blockade of cellular attachment of WNV to Vero cells (cell-associated viral RNA by fluorogenic RT-PCR), fold reduction [1]	blockade of cellular attachment of WNV to Vero cells (cell-associated viral RNA by fluorogenic RT-PCR), fold reduction [2]
monoclonal antibody E60	8 to 9 fold	
B1		3.5 fold
